These results are taken from PMC2583301.

The experiment deals with yNap1 C200A/C249A/C272A labelled with Alexa dye at Cys-414 (yNap1m*) (yeast) (UniProt P25293). Description: other fluorescence titration.

pKd: −log10 of the molar value.

By pKd is commonly meant −log10 of the Kd, conventionally taken in molar units. A high value points to a small Kd. With linker histone H1 (natural protein), the pKd was 8.52 and the stoichiometry N (H1 per yNap1 dimer) is 2.
